Assay results taken from patent US20240197738.

Biological target: EWS-FLI1-3A (S464A/S465A/S466A)

B1: OTUD7A (protein)
chain: MVSSVLPNPTSAECWAALLHDPMTLDMDAVLSDFVRSTGAEPGLARDLLEGKNWDLTAALSDYEQLRQVHTANLPHVFNEGRGPKQPEREPQPGHKVERPCLQRQDDIAQEKRLSRGISHASSAIVSLARSHVASECNNEQFPLEMPIYTFQLPDLSVYSEDFRSFIERDLIEQATMVALEQAGRLNWWSTVCTSCKRLLPLATTGDGNCLLHAASLGMWGFHDRDLVLRKALYTMMRTGAEREALKRRWRWQQTQQNKEEEWEREWTELLKLASSEPRTHFSKNGGTGGGVDNSEDPVYESLEEFHVFVLAHILRRPIVVVADTMLRDSGGEAFAPIPFGGIYLPLEVPPNRCHCSPLVLAYDQAHFSALVSMEQRDQQREQAVIPLTDSEHKLLPLHFAVDPGKDWEWGKDDNDNARLAHLILSLEAKLNLLHSYMNVTWIRIPSETRAPLAQPESPTASAGEDVQSLADSLDSDRDSVCSNSNSNNGKNGKDKEKEKQRKEKDKTRADSVANKLGSFSKTLGIKLKKNMGGLGGLVHGKMGRANSANGKNGDSAERGKEKKAKSRKGSKEESGASASTSPSEKTTPSPTDKAAGASPAEKGGGPRGDAWKYSTDVKLSLNILRAAMQGERKFIFAGLLLTSHRHQFHEEMIGYYLTSAQERFSAEQEQRRRDAATAAAAAAAAAAATAKRPPRRPETEGVPVPERASPGPPTQLVLKLKERPSPGPAAGRAARAAAGGTASPGGGARRASASGPVPGRSPPAPARQSVIHVQASGARDEACAPAVGALRPCATYPQQNRSLSSQSYSPARAAALRTVNTVESLARAVPGALPGAAGTAGAAEHKSQTYTNGFGALRDGLEFADADAPTARSNGECGRGGPGPVQRRCQRENCAFYGRAETEHYCSYCYREELRRRREARGARP
3A-EWS-FLI1 protein level after OTUD7A depletion (immunoblot, FIG. 3I): depletion of OTUD7A failed to reduce 3A-EWS-FLI1 protein levels
